Laboratory results reported in the DeepSol protein solubility set.

Experiment: soluble on expression in E. coli; label from the status in PepcDB or PDB records

| Sequence | soluble on expression in E. coli |
| --- | --- |
| MTNWLIAYQGEPGAYSEIAALRFGEPLPCESFDDVFSAVTEQKADYAVIPIENSLGGSIHQNYDLLLRRPVVILAETFVKVEHCLLGLPGASVETATKAMSHPQALVQCHNFFATHPQIRAEAAYDTAGSAKMVAESRDKSALAIASKRAGELYGLDILKENLADEEWNITRFFCIAHENNPDISHLKVRPDVARQKTSIVFALPNEQGSLFRALATFALRGIDLTKIESRPSRKKAFEYLFYADFIGHREDQNVHNALENLREFATMVKVLGSYGVVNP | soluble |
| MVEVVGVRFREAGHIYYFAPGKSEYIYNEKVLVESQQSKQLATVAIPKKTVDSDDLPEDLKPILNKATANDLEKEQKNLADAEAAKSIANEKIRAHDLKMKLVRVEYTFDRSKMIFYFTADGRIDFRELVKDLAAIFRTRIELRQIGVRDEAKILGGIGPCGRQLCCSTFLGDFMPVSIKMAKDQGLSLNPVKISGLCGRLMCCLKYENDEYEAAKKELPDYGKEVITPDGKGKVVGLNLLSRIVKVRLHGREIAADYDYEEIKEATAKVAAEKGDQNGLEHHHHHH | soluble |
| MVKTMKWARIGDIIVLNREADDPEALLEMEGVRSVIRVEGIHGPLRRPRVRVLAGSGTETVHKENGCLFRIDLSRVMWSRGNINERARIPSLVEEGETVVDMFAGIGYFSIPVAVHSDPGRVYSVELNPDSFELLKSNITLNRVEGIIEPILGDCREVAPELDADRVIMGYVGRTHHFLDAAMECVRDGGVIHYHETAPEAIRFSRPLRRIERAAHPRRVSLLDKRVIKKYSPGVWHVVLDVRIH | soluble |
| MSLYCNLLKPIKIGNLELKNRVSFAPTSMGLKLEEKIKKFSDIAKSGVALITLGDVSIRPSFHKVAISLSDEDGVMKYKKIVDEIHNSGAKVSAQLFCSDYDVNLIKDTMKMGITSHDEIKKIMNDGVKDYITNMTKGEIKNIINLFKVTALNAKKAGFDMIQIHGDRLVGSFSSSIFNNRNDEYGGTCDNRSRFASEIISSIRDEVKDIPIDYKFAIRQENPHYGNAGVLLSEVEYFVKKFESLGVNSFHVTLANHSKLEDTIPTNNHPYFKDEGCFLYLADEVKKHTNLPVCGVGKLSSPDFIESIISNNRVDMVSMSRQLLADSNWLQKVKDGRVDEIKKCCYCNKKCADALQTRSQFGCILDEGHHHHHH | soluble |
| MSLELSLADRPAIVTGASRGIGREIAARFAEAGGDVVVCSRTYEDVEAVATELTQTHDGRVVPVECDVTDREAVRDLVDTTIQEFGDIRVLVNNAGGADESANLLHRCDEETFESMVDLNLKSQFLLSKEVLPAMVAAGGGSIIHMGSVNGLFGIGLSGYSEAKSGLLALSRNIAAHYGQHGVRSNVISAATIETANRRAEMENTEERTGETSARERWLDQYPLGRFGTPREVADTTLFLASEMSSFLTGENLVLDGGLTTSLPTSFINEVYDADEKPTPNEGHHHHHH | soluble |
| MSFTPANRAYPYTRLRRNRRDDFSRRLVRENVLTVDDLILPVFVLDGVNQRESIPSMPGVERLSIDQLLIEAEEWVALGIPALALFPVTPVEKKSLDAAEAYNPEGIAQRATRALRERFPELGIITDVALDPFTTHGQCGILDDDGYVLNDVSIDVLVRQALSHAEAGAQVVAPSDMMDGRIGAIREALESAGHTNVRVMAYSAKYASAYYGPFRDAVGSASNLGKGNKATYQMDPANSDEALHEVAADLAEGADMVMVKPGMPYLDIVRRVKDEFRAPTFVYQVSGEYAMHMGAIQNGWLAESVILESLTAFKRAGADGILTYFAKQAAEQLRRGR | soluble |
| MSQQPGVLPENMKRYMGRDAQRMNILAGRIIAETVRSTLGPKGMDKMLVDDLGDVVVTNDGVTILREMSVEHPAAKMLIEVAKTQEKEVGDGTTTAVVVAGELLRKAEELLDQNVHPTIVVKGYQAAAQKAQELLKTIACEVGAQDKEILTKIAMTSITGKGAEKAKEKLAEIIVEAVSAVVDDEGKVDKDLIKIEKKSGASIDDTELIKGVLVDKERVSAQMPKKVTDAKIALLNCAIEETASEMLKDMVAEIKASGANVLFCQKGIDDLAQHYLAKEGIVAARRVKKSDMEKLAKATGANVITNIKDLSAQDLGDAGLVEERKISGDSMIFVEECKHPKAVTMLIRGTTEHVIEEVARAVDDAVGVVGCTIEDGRIVSGGGSTEVELSMKLREYAEGISGREQLAVRAFADALEVIPRTLAENAGLDAIEILVKVRAAHASNGNKCAGLNVFTGAVEDMCENGVVEPLRVKTQAIQSAAESTEMLLRIDDVIAAEKLRGAPDMGDMGGMPGMGGMPGMM | soluble |
| AHHHHHHGSIDDLVERMRKGDRRAVARLITLVENDEKKAREIIKRIYPLTGNAYIVGITGPPGSGKSTLVDKLVKEARKEGLIVGVIAVDPTSPFTGGALLGDRIRMQDHATDPGVFIRSMATRGSLGGLAKATNDAIKILDAYGCDIIFVETVGVGQVEVDIVKTADTVVLVTVPGLGDDIQAIKAGLMEIADIFVLNKADREGADATYFELSLTLDLESEKWEKLGWRPPIVETVATLGKGIKELWEQIKRHREFLEKSGKLEEKKRLRVEEEIKTIVSDMIAKKVEVSIKAGNLEDILEKVMKKELDPYSAASLIMEKIIGGGKSV | soluble |
| MSLAEIRIRPLEVSALSRRLCIWADIVDASGVLLNSAPVWFDVSAMGEVWTPSTDAEKGTAVDVHPLKREFIDVAAAGIEPASRREIEGKEFSRRVESGQPITKDVLRAIPEIKNGDIVFVEVRVGTVFLRSRAEAMHDAYIGDRIKLKSVSSGETMLGVVLSAGRVWIGSEGHHHHHH | not soluble |
| MGSDKIHHHHHHMIERLELRNLTVFTGLTLELSPKINVIIGENGTGKTHLLKAAYGLCAGAPLFKNKPDTGDDELEAALTAKLLRLFMPLDDKLGKMHRQGATDQAYLSAKFAGGQKIAATFFNNSKALAVQDRANYEKYQAEAVFIPTKEVLSFMKGFNSLYEKYGLSFDQTYQDICLLLDLPEVRPETLHEKSKWAMAEIEGICGGRFVFYGGGKVTFKTENAEYSANSMAEGFRKAGILSRLLETGAIQPGVSGPLFWDEPESNLNPKLMKLLVQILLELSRNGQQIILATHDYVLLKWFDLLMDKGKDDHVRFHSLYRDADTSEIKVASTEDYLKITPNPIDEAFGFLINQEIENDMGGLGK | not soluble |
| MFFVSLLFEFFDSIFEIAVMLGFEMLCRMAADSSVLHCLVAAYMGLGKLPATTEKHTYAQQDKSQSDQQKRSQKNCSHLLLYLRNTKVRFSYPQRSTINNS | not soluble |
| MPRKRSVALAAWGEEGLLLVLRPQDDPEFPGAWGLPAVSLQGEETLEEAALRVAREKLGAEVAEAGPIAFGVEERPGYTLELWVYEGRLLGRPRLPEPKPGKTYYAAFRFGRPEELKAAARQGSLCSRLFLAVKGLCP | soluble |
| MNVTTPEVAFREYQTNCLASYISADPDITPSNLILQGYSGTGKTYTLKKYFNANPNLHAVWLEPVELVSWKPLLQAIARTVQYKLKTLYPNIPTTDYDPLQVEEPFLLVKTLHNIFVQYESLQEKTCLFLILDGFDSLQDLDAALFNKYIKLNELLPKDSKINIKFIYTMLETSFLQRYSTHCIPTVMFPRYNVDEVSTILVMSRCGELMEDSCLRKRIIEEQITDCTDDQFQNVAANFIHLIVQAFHSYTGNDIFALNDLIDFKWPKYVSRITKENIFEPLALYKSAIKLFLSTDDNLSENGQGESAITTNRDDLENSQTYDLSIISKYLLIASYICSYLEPRYDASIFSRKTRIIQGRAAYGRRKKKEVNPRYLQPSLFAIERLLAIFQAIFPIQGKAESGSLSALREESLMKANIEVFQNLSELHTLKLIATTMNKNIDYLSPKVRWKVNVPWEIIKEISESVHFNISDYFSDIHE | soluble |
| MEWFGIGAGTLRQGDRADFAVIDPTHLDESVDGYHEEAVPYYGGLRRMVNRNDATVVATGVGGTVVFRGGQFGGQFRLEHHHHHH | not soluble |
| MPIMLEDYQKNFLELAIECQALRFGSFKLKSGRESPYFFNLGLFNTGKLLSNLATAYAIAIIQSDLKFDVIFGPAYKGIPLAAIVCVKLAEIGGSKFQNIQYAFNRKEAKDHGEGGIIVGSALENKRILIIDDVMTAGTAINEAFEIISNAKGQVVGSIIALDRQEVVSTDDKEGLSATQTVSKKYGIPVLSIVSLIHIITYLEGRITAEEKSKIEQYLQTYGASA | soluble |
| MSLGGSAMYHAQLGREYHEKALKYRSLAMRSLAHSGTSHSLDLHGATVREAKTIVRERVAAWWAKEADTSPNSIRPFVIVTGRGNHSIGLEARLLPAIVRLLQQDHWRFDAEHGQITVYGINRHSKEGHHHHHH | soluble |
| MNRNRRDGPQRDVKRERRSRSRSPRRSRIGAAVGSNNGNSSSNNRMVFITNIAYEARWVDLKSLVREKGGEVAFCELLEDRNGKPKGNAVVEFETREGAEKCVENLQKFDWKGRTIIAKEIRDPNAFFRTIKTETGIDYLSRTGGGGAGGRGPPPKDLDRPTRTGTYDLFGLNMEFLRQHNIEPPLCERIFIANLAFNVGTDKLYEVFGMAGKITWMDFRIDKEGKSKGVCVIQYTHPIEAVQAVSMLNGQRLFDRNLVVKMDRFDKELEHKEGGLPRGLESIGMGLGAEGAPLSNVHGMFPGDASVPFTAPAAPFVGGPQVVSAGGFGGVVEQANFARSVMNNGPFGGNAGVGGAGGATFAQPDVFGVNGAGGLAGAATPQATRVIIIRNLPSDYTWQIVRDRVRNFGEVDSVDMMAPGAARIRFATFQDAERARAALYGSTVEGRMISVDYA | soluble |
| MIEIATSPATTTLVIAGDLDLAERDQFPEIAARVVGLRRQLLVIDMCRVTFMDSTGAAFLISLADSGRKRGGATVLRGCDDRDLFVLEVCGALELFRIDPDHACAPKTPATGVPAVEERPGRTR | not soluble |
| MIRVCNQIGIPYYAVNFEKQYYEKVFQYFLDEYKAGRTPNPDVLCNKEIKFKAFLEHALSLGADYLATGHYARVDRSGGKVRMLRGIDENKDQTYFLNQLTEDTLSKVMFPIGELQKSRVREIAKEAELATATKKDSTGICFIGERNFKTFLSQYLPAQPGDMMTMDGEVKGRHDGLMYYTIGQRHGLGIGGSGEPWFAVGKDLEKNILYVDQGFHNPLLYSDKITATNISWVRSDIMKGEEISCTAKFRYRQEDHKVTVRMTGEGEAEVIFDEQVRAVTPGQAVVFYDGEECLGGGTIDDVYKDGTKLWYV | not soluble |
| MGHHHHHHSHMLVLRSGLTKALASRTLAPQVCSSFATGPRQYDGTFYEFRTYYLKPSNMNAFMENLKKNIHLRTSYSELVGFWSVEFGGRTNKVFHIWKYDNFAHRAEVRKALANCKEWQEQSIIPNLARIDKQETEITYLIPWSKLEKPPKEGVYELAVFQMKPGGPALWGDAFERAINAHVNLGYTKVVGVFHTEYGELNRVHVLWWNESADSRAAGRHKSHEDPRVVAAVRESVNYLVSQQNMLLIPASFSPLK | not soluble |
| MGSDKIHHHHHHMTVIDLSALDPPDLVETLDFEAAYQYKLQHFKSIYPDWTAALESDPVVKLIELAAYDEVRFRARVNDAGRAVLLAYSTGADLEHLAVLWNLQRETVDPGDPEAHPPVPATRERDERLRLRTQMGIERSSTAGPFGAYRSLAMDASPDVADVRVDRPEAGVVRVVVKSYSNGGVASAALLDTVRRALSPEDRRPLNDSLLVVAARPVNYAIVADVYIGRGPDPGVVLAARRQDLDIAVAAGEALRVGMPRSAVTGALHPKASGVVRVDLKLPAADVVCAIDQFARCTSIVLNPKVADDD | not soluble |
| EQLPVLQTVPFAGSAEPVSLTRESVERSVGEANMQEQRKRVHAMLRDYELQLRINSDASQQDAHLTPDSE | not soluble |
